Reference: patent US20130171217A1, “ENZYMATIC PERACID GENERATION FOR USE IN SKIN CARE PRODUCTS” (E I DU PONT DE NEMOURS AND COMPANY, priority 2010, published 2013)

Legend:
[1] = Retention of perhydrolase on hair detected by hydrolase activity; format: binding
Experimental: For hair binding experiments brown hair tresses (International Hair Importers and Products, Glensdale N.Y.) were used. The hair was washed with 2% SLES, rinsed extensively with deionized water and air dried.
Around 20 mg of 1 cm brown hair fragments was added in a 1.8-mL microfuge tube. Hydrolase assay buffer (1.2 mL) as added to the hair followed by the addition of the perhydrolase enzymes to the solution. The enzymes were allowed to bind the hair for 30 min with gentle agitation (24 rpm) on an Adams Nutator (model 1105, Becton Dickinson, Franklin Lakes, N.J.). No enzyme controls, with hair and without hair, were included in the binding experiment to account for non-enzymatic hydrolysis of the pNPA hydrolase reagent. After the binding step, a 1.0-mL aliquot of the binding buffer was transferred to a new tube to quantitate the amount of unbound enzyme. Additional binding buffer was removed and the hair fragments were washed 4 times with 1 mL of 1% TWEEN®-20 in hydrolase buffer, followed by 2 washes with 1 mL each in hydrolase buffer. The hair fragments were then resuspended in 1 mL of hydrolase assay and the hydrolase activity that remained bound to the hair was measured. The C277S (“PAH”) variant of Thermotoga maritima perhydrolase (SEQ ID NO: 293) was used as a control for an un-targeted perhydrolase.

[2] = Two-step treatment of hair tresses, tress tensile strength
Experimental: Medium brown hair was used in these examples. Stock hair swatches were custom made by International Hair Importers (Glendale, N.Y.). Each swatch had 1500 mg of 50% reversed hair, soft glued in the middle with glue thickness of 1 mm and width of 2 cm.
Test-hair-sample consisted of a hair bundle of approximately 50 mg hair of 4 cm length, held together by a 1 mm thick, 2 mm wide and 5 mm long glue strip. A sheet of BYTAC® (TYPE VF-81, Saint-Gobain Performance Plastics, Wayne, N.J.) was attached to a polystyrene cover-plate, providing a TEFLON®-coated test-surface for mounting and treatment of hair. A strip of double-sided scotch tape was applied on the BYTAC® surface, closer to the top edge of the test plate. The glued side of the test-hair-sample was pressed down on the exposed side of the tape, making sure that the unglued hair strands are completely clear of the tape. The glued parts of the tress and exposed double-sided tape surface were covered with a strip of clear single-sided tape. Although the method is described for a single test-hair-tress, 4 tresses were used for each test condition and were placed side-by-side during the entire treatment.
The test tress was wetted by tap water and the excess water was absorbed with a paper towel. The calculated volume of the enzyme formulation was applied and was worked in gently and evenly into hair strands with gloved fingers for ˜30 seconds and let the formulation soak in for the specified deposition time. The tress was then rinsed with tap water agitated through a peristaltic pump for 20 seconds, to completely remove the surfactant.
Excess water was removed from the wetted tress from the previous step by absorption on a paper towel. The requisite volumes of the substrates (H2O2 and triacetin (TA)) were applied onto the test-tress. The mixture was rubbed into the hair strand firmly and evenly, with gloved finger for ˜1 min. The tress was left semi-covered for the specified treatment time.
Test-hair was washed with a diluted surfactant solution by rubbing the surfactant into hair with enough vigor to foam, for one minute to remove all traced of oils and residues arising during tress preparation or from previous cycles. Hair was rinsed thoroughly with tap water, agitated through a peristaltic pump for 35 seconds, while gently opening tresses with gloved fingers to ascertain that all adherents (surfactant or moisturizer) are dislodged. Excess moisture was absorbed by pressing down the paper towel over the tress. This would mark the end of one cycle. Treatment cycles were repeated starting from the enzyme-deposition step until the desired number of cycles was reached.
Two samples from each experiment were subjected to Tensile assay as described in Example 23, to determine the extent of hair-weakening.
The following experiments followed the general method of treatment disclosed in Example 25. Solutions were made in 5% TWEEN®-20 surfactant in 50 mM citrate buffer at pH 6. […] H2O2 and triacetin, formulations were made according to Example 24, in 20% LUBRIDERM® lotion in 50 mM citrate buffer at pH 6. After application of the reagents, the treatment was allowed to continue for 24 hr, as in daily application. TWEEN®-20 (5% in 50 mM citrate buffer at pH 6) was used for the final surfactant wash. The treatment was repeated for 15 additional cycles, 16 days in all.
The following experiments followed the general method of treatment disclosed in Example 26, except that after application of the reagents, the treatment was allowed to continue for shorter times per cycle rather than 24 hours per cycle.
Enzyme solutions were made in 0.5% or 5% TWEEN®-20 surfactant in 50 mM citrate buffer at pH 6. […] H2O2 and triacetin, formulations were made according to Example 24, in 20% LUBRIDERM® lotion (Johnson & Johnson, New Brunswick, N.J.) in 50 mM citrate buffer at pH 6. After application of 400 μL each of the reagents, the treatment was allowed to continue for 20-40 min. […]

[3] = PAA generation with different perhydrolases and substrates, HPLC Karst assay; format: biochemical
Experimental: HC1121 is a CE-7 class carbohydrate esterase from Thermotoga maritima (C2775-HC263; SEQ ID NO: 288), and HC1169 is an aryl esterase from M. smegmatis (ArE-HC263; SEQ ID NO: 323). Both enzymes were tested for their perhydrolytic activity with substrates triacetin or propylene glycol diacetate (PGDA, Aldrich 528072) and hydrogen peroxide between pH 5 and pH 7.2. Enzyme free reactions for some reaction conditions were run to determine the non-enzymatic generation of peracetic acid as well. At the end of reaction, the reaction was quenched by acidification 10 or 25 fold with 100 mM H3PO4. The quenched samples were filtered using a NANOSEP® MF centrifugal device (30K Molecular Weight Cutoff (MWCO), Pall Life Sciences, Ann Arbor, Mich., P/N OD030C35) by centrifugation for 6 min at 12,000 rpm. The filtrates were assayed by HPLC Karst assay in duplicates to determine the amount of peracetic acid (PAA) generated at those reaction conditions.

B1: C277S-HC263: C277S variant of Thermotoga maritima perhydrolase fused via a flexible linker to hair-binding domain HC263 (protein)
chain: MAFFDLPLEELKKYRPERYEEKDFDEFWEETLAESEKFPLDPVFERMESHLKTVEAYDVTFSGYRGQRIKGWLLVPKLEEEKLPCVVQYIGYNGGRGFPHDWLFWPSMGYICFVMDTRGQGSGWLKGDTPDYPEGPVDPQYPGFMTRGILDPRTYYYRRVFTDAVRAVEAAASFPQVDQERIVIAGGSQGGGIALAVSALSKKAKALLCDVPFLCHFRRAVQLVDTHPYAEITNFLKTHRDKEEIVFRTLSYFDGVNFAARAKIPALFSVGLMDNISPPSTVFAAYNYYAGPKEIRIYPYNNHEGGGSFQAVEQVKFLKKLFEKGGPGSGGAGSPGSAGGPGSPSAQSQLPDKHSGLHERAPQRYGPEPEPEPEPIPEPPKEAPVVIEKPKPKPKPKPKPPAHDHKNQKETHQRHAAGSGGGGSPHHHHHH
Q: Which results are given for B1?
A: Activity in the first TWEEN®-20 wash ([1]; hydrolase activity, 1% TWEEN®-20): 9%; Activity retained on hair after 4 TWEEN® 20 washes ([1]; hydrolase activity, 4 washes 1% TWEEN®-20 and 2 buffer washes): 54%; Activity unbound ([1]; hydrolase activity, ~20 mg hair, binding 30 min): 52%; 100% activity (hydrolase activity added to the tube) ([1]; tube containing ~20 mg of hair, not subjected to washes): 53 µmol/min; TS ([2]; 750 μg/mL (E/H 3), 0.25 M H2O2, 0.25 M TA, 20 min/cycle, 16 cycles): 2.64 N/mgH; TS ([2]; 750 μg/mL (E/H 3), 0.25 M H2O2, 0.25 M TA, 24 hr/cycle, 16 cycles): 1.51 N/mgH; TS ([2]; 750 μg/mL (E/H 3), 0.5 M H2O2, 0.5 M TA, 20 min/cycle, 16 cycles): 2.09 N/mgH; TS ([2]; 750 μg/mL (E/H 3), 0.5 M H2O2, 0.5 M TA, 24 hr/cycle, 16 cycles): 0.25 N/mgH; TS ([2]; 750 μg/mL (E/H 3), 0.75 M H2O2, 1 M TA, 40 min/cycle): 2.49 N/mgH; Predicted TS for 24 h/cycle ([2]; 750 μg/mL, from 40 min/cycle): 1.00 ^ N/mgH; TS ([2]; 1500 μg/mL (E/H 5), 0.75 M H2O2, 1 M TA, 20 min/cycle): 2.47 N/mgH; TS ([2]; 1500 μg/mL (E/H 6), deposition 5 min, 0.5 M H2O2, 1 M TA, 2 hr/cycle): 1.62 N/mgH; Predicted TS for 24 h/cycle ([2]; 1500 μg/mL, from 20 min/cycle): 0.97 ^ N/mgH; TS ([2]; 1750 μg/mL (E/H 7), 0.25 M H2O2, 0.25 M TA, 20 min/cycle, 16 cycles): 2.33 N/mgH; TS ([2]; 1750 μg/mL (E/H 7), 0.25 M H2O2, 0.25 M TA, 24 hr/cycle, 16 cycles): 0.77 N/mgH; TS ([2]; 1750 μg/mL (E/H 7), 0.5 M H2O2, 0.5 M TA, 20 min/cycle, 16 cycles): 1.90 N/mgH; TS ([2]; 1750 μg/mL (E/H 7), 0.5 M H2O2, 0.5 M TA, 24 hr/cycle, 16 cycles): 0.14 N/mgH; TS ([2]; 1750 μg/mL (E/H 7), 0.75 M H2O2, 1 M TA, 40 min/cycle): 1.65 N/mgH; Predicted TS for 24 h/cycle ([2]; 1750 μg/mL, from 40 min/cycle, (d) predicted disintegration of hair): −0.13(d) N/mgH; TS ([2]; 2500 μg/mL (E/H 10), 0.75 M H2O2, 1 M TA, 20 min/cycle): 1.73 N/mgH; TS ([2]; 2500 μg/mL (E/H 10), 0.75 M H2O2, 1 M TA, 40 min/cycle): 1.67 N/mgH; TS ([2]; 2500 μg/mL (E/H 10), 20 min/cycle, 1 cycle): 3.44 N/mgH; TS ([2]; 2500 μg/mL, 4 cycles): 3.13 N/mgH; TS ([2]; 2500 μg/mL, 8 cycles): 2.34 N/mgH; TS ([2]; 2500 μg/mL, 12 cycles): 1.66 N/mgH; TS ([2]; 2500 μg/mL, 16 cycles): 0.95 N/mgH; Predicted TS for 24 h/cycle ([2]; 2500 μg/mL, from 20 min/cycle, (d) predicted disintegration of hair in 16 × 24 h/cycle): −0.02(d) N/mgH; Predicted TS for 24 h/cycle ([2]; 2500 μg/mL, from 40 min/cycle, (d) predicted disintegration of hair): −0.10(d) N/mgH; PAA ([3]; 10 μg/mL enzyme, 250 mM triacetin, 100 mM H2O2, 20% LUBRIDERM® in pH 7.2, 100 mM phosphate buffer, 60 min): 4451 ppm; PAA ([3]; 50 μg/mL enzyme, 100 mM triacetin, 250 mM H2O2, pH 5, 50 mM citrate buffer, 5 min): 277 ppm; PAA ([3]; 50 μg/mL enzyme, 100 mM triacetin, 250 mM H2O2, pH 5.6, 50 mM citrate buffer, 5 min): 1222 ppm; PAA ([3]; 50 μg/mL enzyme, 100 mM triacetin, 250 mM H2O2, pH 6, 50 mM citrate buffer, 5 min): 2350 ppm; PAA ([3]; 50 μg/mL enzyme, 100 mM triacetin, 250 mM H2O2, pH 6.6, 50 mM citrate-phosphate buffer, 5 min): 4067 ppm; PAA ([3]; 50 μg/mL enzyme, 100 mM triacetin, 250 mM H2O2, pH 7, 50 mM pyrophosphate buffer, 5 min): 4832 ppm
